According to PMC13382767:

Target: apo-CA-HNifU (N-terminal His-tagged NifU with cysteines 35, 62, 106, 272 and 275 mutated to alanine, core cluster removed) (A. vinelandii) (UniProt P05340)
UniProt P05340, sequence (P05340 other isoform, or with tags, fused parts or gaps, change not shown): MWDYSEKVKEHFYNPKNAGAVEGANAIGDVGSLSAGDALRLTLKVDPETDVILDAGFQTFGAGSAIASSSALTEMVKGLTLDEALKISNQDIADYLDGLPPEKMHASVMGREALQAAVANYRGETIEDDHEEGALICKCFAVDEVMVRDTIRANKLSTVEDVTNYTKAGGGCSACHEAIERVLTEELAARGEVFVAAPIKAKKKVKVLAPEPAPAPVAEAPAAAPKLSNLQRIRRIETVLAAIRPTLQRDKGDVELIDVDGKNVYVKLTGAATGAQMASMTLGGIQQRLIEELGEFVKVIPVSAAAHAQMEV

- iron transferred from GrxDS to EDTA-treated CA-HNifU (iron in the flowthrough NifU after incubation and separation in a Strep-column): 1 iron
- iron transferred from GrxDS to urea-treated apo-CA-HNifU (iron in the flowthrough NifU after incubation and separation in a Strep-column): 1.8 irons
Substance: C-terminal Strep-tagged A. vinelandii GrxD (GrxDS) (natural protein)
